Publication PMC7613211 (Nature chemical biology, 2022)

Assays:
BT4631^6S-Gal/GalNAc = biological target: T1, BT4631^6S-Gal/GalNAc (Bacteroides thetaiotaomicron, UniProt Q89YV0); test: desulfation assay; format: biochemical
T1 sequence (Q89YV0 26-520): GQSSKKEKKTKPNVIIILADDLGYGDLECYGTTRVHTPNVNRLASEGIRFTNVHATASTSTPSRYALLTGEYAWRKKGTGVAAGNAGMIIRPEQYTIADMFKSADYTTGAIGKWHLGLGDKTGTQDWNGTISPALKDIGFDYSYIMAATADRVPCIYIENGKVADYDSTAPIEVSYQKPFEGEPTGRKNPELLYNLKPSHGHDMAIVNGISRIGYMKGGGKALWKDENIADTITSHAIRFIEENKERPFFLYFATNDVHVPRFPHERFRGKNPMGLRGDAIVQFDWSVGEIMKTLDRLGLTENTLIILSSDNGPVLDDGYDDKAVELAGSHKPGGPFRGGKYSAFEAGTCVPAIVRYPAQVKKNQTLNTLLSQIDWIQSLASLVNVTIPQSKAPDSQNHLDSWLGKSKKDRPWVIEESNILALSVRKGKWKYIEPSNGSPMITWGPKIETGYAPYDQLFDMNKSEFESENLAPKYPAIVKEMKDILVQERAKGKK

[1] = biological target: BT1918^3S,6S-GlcNAc (Bacteroides thetaiotaomicron) (UniProt Q8A6G6); test: SEC-MALS
[2] = biological target: BT3796^4S-Gal/GalNAc (Bacteroides thetaiotaomicron) (UniProt Q8A171); test: SEC-MALS
SEC-MALS = biological target: the molecule itself; test: SEC-MALS

CC(=O)N[C@H]1C(O)O[C@H](COS(=O)(=O)O)[C@H](O)[C@@H]1O (stereo partly drawn) [6S-GalNAc]
desulfation assay (kcat/KM only, supplement) (BT4631^6S-Gal/GalNAc): BT4631^6S-Gal/GalNAc cleave both 6S-GalNAc and 6S-Gal equally well

BT1918^3S,6S-GlcNAc (from UniProt Q8A6G6 1-500) (enzyme)
stoichiometry N [1]: 2

O=S(=O)(O)OC[C@H]1OC(O)[C@H](O)[C@@H](O)[C@H]1O (stereo partly drawn) [6S-Gal]
desulfation assay (kcat/KM only, supplement) (BT4631^6S-Gal/GalNAc): BT4631^6S-Gal/GalNAc cleave both 6S-GalNAc and 6S-Gal equally well

BT3796^4S-Gal/GalNAc (from UniProt Q8A171 1-518) (enzyme)
stoichiometry N [2]: 2

B1: BT3057^4S-Gal/GalNAc (enzyme, Bacteroides thetaiotaomicron, UniProt Q8A397 1-508, looked up)
chain: QERPNIIVFLVDDMGLMDTSVPFIADESGQPVRHPLNDWYHTPNMERLAKQGICFSTFYAQSVSSPSRASIMTGQNATRHGVTNWINAESNNRNPFGPPQWNWKGLRKDMPTMPRVLQQAGYKTIHVGKAHFGCMGSEGENPLNIGFDVNIAGSGIGHPGSYYGEWGYGHIKGQKIRAVPDLEKYHGTDTFLSEALTIEANREITKAVEEKRPFYLNMAHYAVHSPFQADKRFLSRYTDPDKNEQARAFATLIEGMDKSLGDIMDQLEKLGIAENTLILFLGDNGGDAPLGDERGYGSSAPLRGKKGTEFEGGMRVPFIAAWAKPEKKSKVQKNLPIEVGSMQTQLGTIMDIYPTVLSVAGCEVPQNYVIDGFDLKKQLSGKVDKKRPESFLMHFPHAHRGSYFTTYRMGDWKLIYYYLPETPKQPKALLYNLKDDPEERNELSAAHPDQCREMIREMSARLEKEGALYPVDKQGNELKPFVYF
stoichiometry N (SEC-MALS): 2
